Drawing on paper PMC10042815, this text covers antithrombin activity by thrombin titration (bovine fibrinogen, fibrin clot within 1 min as endpoint, 37 °C, 50 mM Tris-HCl pH 7.4) for two substances.

The experiment has as its target thrombin (Sigma, Germany).

“commercially available hirudin (MedChem Express) (natural protein)”: the antithrombin activity by thrombin titration (bovine fibrinogen, fibrin clot within 1 min as endpoint, 37 °C, 50 mM Tris-HCl pH 7.4) worked out at 12000 ATU/mL.
As for “recombinant hirudin from Hirudo nipponia (candidate hirudin gene c16237_g1) (natural protein)”, the figure is 14000 ATU/mL.
